The record followed here is patent publication US20050042227A1.

Assay in all cases: cell-based or functional assay
The target of experiment [1] is LRP1 receptors on GM244 human Pompe fibroblasts (human) (UniProt Q07954).
The next experiment concerns the target LRP.
Experiment [2] addresses mannose-6-phosphate receptor on GM244 human fibroblasts (human) (UniProt O00264).

LRP1 receptors on GM244 human Pompe fibroblasts (human), sequence (Q07954 20-4544): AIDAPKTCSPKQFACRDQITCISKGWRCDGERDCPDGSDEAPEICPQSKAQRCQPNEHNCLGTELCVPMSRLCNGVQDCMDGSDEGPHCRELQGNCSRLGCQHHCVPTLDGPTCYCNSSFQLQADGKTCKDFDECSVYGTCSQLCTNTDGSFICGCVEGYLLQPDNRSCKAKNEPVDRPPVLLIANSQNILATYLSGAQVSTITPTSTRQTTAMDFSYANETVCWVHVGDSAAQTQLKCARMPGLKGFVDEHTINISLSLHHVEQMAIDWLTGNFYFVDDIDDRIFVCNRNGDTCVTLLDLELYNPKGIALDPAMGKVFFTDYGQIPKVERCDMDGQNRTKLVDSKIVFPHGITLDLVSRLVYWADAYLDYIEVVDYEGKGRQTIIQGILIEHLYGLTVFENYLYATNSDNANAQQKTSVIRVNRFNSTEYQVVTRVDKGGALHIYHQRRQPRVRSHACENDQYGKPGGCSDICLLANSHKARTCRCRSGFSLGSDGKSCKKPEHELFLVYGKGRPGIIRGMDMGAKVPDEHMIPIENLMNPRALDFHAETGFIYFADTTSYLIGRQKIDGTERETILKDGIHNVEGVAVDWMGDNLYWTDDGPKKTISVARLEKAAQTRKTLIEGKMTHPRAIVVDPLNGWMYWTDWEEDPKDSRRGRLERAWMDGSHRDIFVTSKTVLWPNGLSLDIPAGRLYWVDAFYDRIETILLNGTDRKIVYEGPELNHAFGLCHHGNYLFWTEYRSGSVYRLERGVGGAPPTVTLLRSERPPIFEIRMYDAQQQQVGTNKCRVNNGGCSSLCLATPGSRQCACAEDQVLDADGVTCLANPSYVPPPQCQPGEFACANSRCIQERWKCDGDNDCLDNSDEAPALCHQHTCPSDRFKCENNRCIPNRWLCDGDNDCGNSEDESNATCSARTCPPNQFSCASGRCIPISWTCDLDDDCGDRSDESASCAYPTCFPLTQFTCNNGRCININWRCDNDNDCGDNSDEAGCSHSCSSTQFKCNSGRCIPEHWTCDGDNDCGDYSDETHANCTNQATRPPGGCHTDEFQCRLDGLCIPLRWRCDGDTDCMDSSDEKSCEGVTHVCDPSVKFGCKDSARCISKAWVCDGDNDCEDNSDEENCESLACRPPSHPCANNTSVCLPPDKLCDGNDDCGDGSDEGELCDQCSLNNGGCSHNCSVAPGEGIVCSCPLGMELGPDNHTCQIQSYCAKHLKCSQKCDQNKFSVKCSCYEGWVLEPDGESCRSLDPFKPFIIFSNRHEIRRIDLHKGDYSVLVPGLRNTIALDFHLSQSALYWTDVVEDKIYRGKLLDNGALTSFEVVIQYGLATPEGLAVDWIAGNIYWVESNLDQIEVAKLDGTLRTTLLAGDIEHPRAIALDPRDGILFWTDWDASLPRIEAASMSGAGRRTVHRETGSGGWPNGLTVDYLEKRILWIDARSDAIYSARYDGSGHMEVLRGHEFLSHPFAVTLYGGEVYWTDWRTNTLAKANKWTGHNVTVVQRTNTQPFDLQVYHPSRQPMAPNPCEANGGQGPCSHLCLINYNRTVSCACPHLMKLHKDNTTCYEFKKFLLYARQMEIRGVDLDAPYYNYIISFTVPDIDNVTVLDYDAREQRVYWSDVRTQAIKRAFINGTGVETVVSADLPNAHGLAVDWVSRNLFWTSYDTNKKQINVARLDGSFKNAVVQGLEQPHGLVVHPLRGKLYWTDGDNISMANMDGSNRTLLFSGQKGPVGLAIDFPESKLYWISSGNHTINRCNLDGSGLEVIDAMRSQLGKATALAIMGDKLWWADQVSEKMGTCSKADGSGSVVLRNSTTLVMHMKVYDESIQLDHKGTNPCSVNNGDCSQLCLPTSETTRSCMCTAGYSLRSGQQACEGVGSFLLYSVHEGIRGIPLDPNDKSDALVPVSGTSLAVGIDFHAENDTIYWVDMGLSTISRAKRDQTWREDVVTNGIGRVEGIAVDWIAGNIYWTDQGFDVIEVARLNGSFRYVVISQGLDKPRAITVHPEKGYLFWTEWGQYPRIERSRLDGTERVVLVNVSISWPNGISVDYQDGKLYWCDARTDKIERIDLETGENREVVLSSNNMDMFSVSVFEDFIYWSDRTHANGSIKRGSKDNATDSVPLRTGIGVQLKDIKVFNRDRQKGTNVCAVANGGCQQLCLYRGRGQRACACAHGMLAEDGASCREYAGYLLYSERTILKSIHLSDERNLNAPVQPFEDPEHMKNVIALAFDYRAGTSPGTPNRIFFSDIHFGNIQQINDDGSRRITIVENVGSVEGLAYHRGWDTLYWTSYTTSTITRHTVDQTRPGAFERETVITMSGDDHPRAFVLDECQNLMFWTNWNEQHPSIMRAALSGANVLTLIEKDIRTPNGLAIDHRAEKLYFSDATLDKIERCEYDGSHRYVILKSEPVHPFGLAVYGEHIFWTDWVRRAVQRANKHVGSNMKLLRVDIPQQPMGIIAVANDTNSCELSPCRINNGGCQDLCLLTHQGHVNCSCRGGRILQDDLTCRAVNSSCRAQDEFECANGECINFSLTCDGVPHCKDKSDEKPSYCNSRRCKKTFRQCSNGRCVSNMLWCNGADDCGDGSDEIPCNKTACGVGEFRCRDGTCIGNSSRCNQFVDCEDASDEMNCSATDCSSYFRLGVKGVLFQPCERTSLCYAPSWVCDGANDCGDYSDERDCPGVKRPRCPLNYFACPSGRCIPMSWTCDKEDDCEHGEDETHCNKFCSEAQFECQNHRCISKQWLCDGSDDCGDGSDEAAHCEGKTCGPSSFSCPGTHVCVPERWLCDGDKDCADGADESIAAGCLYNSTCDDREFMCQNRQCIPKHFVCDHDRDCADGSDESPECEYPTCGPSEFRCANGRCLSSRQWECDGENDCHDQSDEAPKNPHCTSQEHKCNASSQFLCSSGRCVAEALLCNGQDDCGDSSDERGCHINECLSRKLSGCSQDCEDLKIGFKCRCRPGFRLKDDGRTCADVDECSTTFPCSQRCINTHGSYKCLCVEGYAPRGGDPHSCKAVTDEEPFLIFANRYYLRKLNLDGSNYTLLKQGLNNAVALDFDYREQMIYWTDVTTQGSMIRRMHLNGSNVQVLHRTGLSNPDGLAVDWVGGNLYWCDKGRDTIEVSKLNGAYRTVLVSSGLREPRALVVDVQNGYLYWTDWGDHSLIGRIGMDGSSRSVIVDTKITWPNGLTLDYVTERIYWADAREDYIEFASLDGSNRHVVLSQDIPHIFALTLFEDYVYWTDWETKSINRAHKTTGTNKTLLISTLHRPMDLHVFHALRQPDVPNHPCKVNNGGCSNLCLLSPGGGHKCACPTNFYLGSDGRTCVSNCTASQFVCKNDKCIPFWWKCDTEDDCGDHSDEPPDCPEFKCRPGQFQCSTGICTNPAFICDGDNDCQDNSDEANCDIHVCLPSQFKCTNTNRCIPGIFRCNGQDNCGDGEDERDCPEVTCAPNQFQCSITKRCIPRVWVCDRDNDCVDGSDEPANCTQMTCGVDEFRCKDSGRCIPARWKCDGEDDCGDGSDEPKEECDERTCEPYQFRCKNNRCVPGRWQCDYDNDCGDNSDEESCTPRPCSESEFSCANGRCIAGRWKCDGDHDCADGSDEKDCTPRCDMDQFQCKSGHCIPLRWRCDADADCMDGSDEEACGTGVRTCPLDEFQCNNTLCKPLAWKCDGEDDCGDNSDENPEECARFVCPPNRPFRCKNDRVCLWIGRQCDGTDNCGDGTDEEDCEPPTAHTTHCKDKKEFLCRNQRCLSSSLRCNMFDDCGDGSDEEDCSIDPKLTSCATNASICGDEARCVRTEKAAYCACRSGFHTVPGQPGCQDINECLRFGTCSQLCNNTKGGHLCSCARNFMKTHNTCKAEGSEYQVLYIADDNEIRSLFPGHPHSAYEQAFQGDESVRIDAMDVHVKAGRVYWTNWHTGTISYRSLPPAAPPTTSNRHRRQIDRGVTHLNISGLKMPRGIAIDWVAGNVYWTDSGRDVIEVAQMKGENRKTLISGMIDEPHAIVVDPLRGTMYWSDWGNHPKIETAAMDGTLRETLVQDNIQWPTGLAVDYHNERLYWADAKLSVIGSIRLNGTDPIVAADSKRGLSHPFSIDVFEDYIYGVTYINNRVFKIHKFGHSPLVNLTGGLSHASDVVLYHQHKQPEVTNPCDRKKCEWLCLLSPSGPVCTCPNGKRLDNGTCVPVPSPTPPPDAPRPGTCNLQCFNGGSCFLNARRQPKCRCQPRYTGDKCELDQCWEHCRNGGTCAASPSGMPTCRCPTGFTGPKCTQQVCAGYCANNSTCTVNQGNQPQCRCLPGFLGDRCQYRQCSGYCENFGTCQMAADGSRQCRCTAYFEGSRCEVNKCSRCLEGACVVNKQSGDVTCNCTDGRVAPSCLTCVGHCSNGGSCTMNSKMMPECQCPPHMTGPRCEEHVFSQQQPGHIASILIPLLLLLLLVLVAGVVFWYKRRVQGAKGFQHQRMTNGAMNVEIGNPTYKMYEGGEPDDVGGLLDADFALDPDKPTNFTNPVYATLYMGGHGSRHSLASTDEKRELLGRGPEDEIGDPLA
mannose-6-phosphate receptor on GM244 human fibroblasts (human), sequence (O00264 whole entry): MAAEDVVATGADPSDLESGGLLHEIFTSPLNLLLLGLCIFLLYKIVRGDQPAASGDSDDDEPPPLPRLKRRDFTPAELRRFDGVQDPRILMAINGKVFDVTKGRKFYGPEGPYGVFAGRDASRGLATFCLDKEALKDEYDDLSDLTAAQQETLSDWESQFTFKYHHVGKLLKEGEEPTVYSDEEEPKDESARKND

Regarding “RAP-GAA fusion (human RAP fused N-terminally to human alpha-glucosidase)”, in experiment [1], the Kuptake, uptake into GM244 fibroblasts measured by GAA enzyme activity was 19 nM; the percent of RAP-GAA uptake into GM244 fibroblasts inhibited by free RAP is 90%; the uptake into GM244 fibroblasts relative to recombinant GAA (Vmax ratio) was determined as 60 fold; the uptake into GM244 fibroblasts relative to recombinant GAA at 10 nM turned out to be 25 fold. In the experiment with LRP, the Kuptake ratio (fusion/enzyme), RAP-GAA against rhGAA, fibroblast (ratio (fusion/enzyme)) turned out to be 25; the Uptake ratio (fusion/enzyme), RAP-GAA against rhGAA, C2C12 myoblast, 5 nM (ratio (fusion/enzyme)) was found to be 18; the Uptake ratio (fusion/enzyme), RAP-GAA against rhGAA, C6 glioma, 5 nM (ratio (fusion/enzyme)) stood at 8; the Uptake ratio (fusion/enzyme), RAP-GAA against rhGAA, fibroblast, 5 nM (ratio (fusion/enzyme)) turned out to be 9. In the experiment with LRP, the Uptake ratio (fusion/enzyme), RAP-GAA against rhGAA, fibroblast, 50 nM (ratio (fusion/enzyme)) stood at 37 and the Uptake ratio (fusion/enzyme), RAP-GAA against rhGAA, fibroblast, saturation (ratio (fusion/enzyme)) stood at 70. Besides, the percent of RAP-GAA uptake into GM244 fibroblasts inhibited by mannose 6-phosphate in experiment [2] stood at 20%.
